Consider four variants from IntAct's records for PubMed 30559189.

B1: Lipoprotein lipase (Homo sapiens), P06858 (parent)
chain: MESKALLVLTLAVWLQSLTASRGGVAAADQRRDFIDIESKFALRTPEDTAEDTCHLIPGVAESVATCHFNHSSKTFMVIHGWTVTGMYESWVPKLVAALYKREPDSNVIVVDWLSRAQEHYPVSAGYTKLVGQDVARFINWMEEEFNYPLDNVHLLGYSLGAHAAGIAGSLTNKKVNRITGLDPAGPNFEYAEAPSRLSPDDADFVDVLHTFTRGSPGRSIGIQKPVGHVDIYPNGGTFQPGCNIGEAIRVIAERGLGDVDQLVKCSHERSIHLFIDSLLNEENPSKAYRCSSKEAFEKGLCLSCRKNRCNNLGYEINKVRAKRSSKMYLKTRSQMPYKVFHYQVKIHFSGTESETHTNQAFEISLYGTVAESENIPFTLPEVSTNKTYSFLIYTEVDIGELLMLKLKWKSDSYFSWSDWWSSPGFAIQKIRVKAGETQKKVIFCSREKVSHLQKGKAPAVFVKCHDKSLNKKSG
partner: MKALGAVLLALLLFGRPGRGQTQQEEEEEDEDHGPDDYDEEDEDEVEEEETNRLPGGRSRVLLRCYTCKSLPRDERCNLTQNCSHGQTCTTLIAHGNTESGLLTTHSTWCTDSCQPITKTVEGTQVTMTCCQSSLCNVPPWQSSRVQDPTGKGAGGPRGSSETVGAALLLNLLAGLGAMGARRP
B2: Glycosylphosphatidylinositol-anchored high density lipoprotein-binding protein 1 (Homo sapiens), Q8IV16 (parent)
chain: B1 partner
partner: B1 chain

Variants of B1 are the subject of the first assay. The conditions noted are these: with hdbp1_human GPIHBP1, Q8IV16.
Consider MESKALLVLTLAVWLQSLTASRGGVAAADQRRDFIDIESKFALRTPEDTAEDTCHLIPGVAESVATCHFNHSSKTFMVIHGWTVTGMYESWVPKLVAALYKREPDSNVIVVDWLSRAQEHYPVSAGYTKLVGQDVARFINWMEEEFNYPLDNVHLLGYSLGAHAAGIAGSLTNKKVNRITGLDPAGPNFEYAEAPSRLSPDDADFVDVLHTFTRGSPGRSIGIQKPVGHVDIYPNGGTFQPGCNIGEAIRVIAERGLGDVDQLVKCSHERSIHLFIDSLLNEENPSKAYRCSSKEAFEKGLCLSCRKNRCNNLGYEINKVRAKRSSKMYLKTRSQMPYKVFHYQVKIHFSGTESETHTNQAFEISLYGTVAESENIPFTLPEVSTNKTYSFLIYTEVDIGELLRLKLKWKSDSYFSWSDWWSSPGFAIQKIRVKAGETQKKVIFCSREKVSHLQKGKAPAVFVKCHDKSLNKKSG [M404R], for which the “effect of a mutation on the interaction” value is listed as “disrupting interaction strength”. The same measure, in the same setting: with MESKALLVLTLAVWLQSLTASRGGVAAADQRRDFIDIESKFALRTPEDTAEDTCHLIPGVAESVATCHFNHSSKTFMVIHGWTVTGMYESWVPKLVAALYKREPDSNVIVVDWLSRAQEHYPVSAGYTKLVGQDVARFINWMEEEFNYPLDNVHLLGYSLGAHAAGIAGSLTNKKVNRITGLDPAGPNFEYAEAPSRLSPDDADFVDVLHTFTRGSPGRSIGIQKPVGHVDIYPNGGTFQPGCNIGEAIRVIAERGLGDVDQLVKCSHERSIHLFIDSLLNEENPSKAYRCSSKEAFEKGLCLSCRKNRCNNLGYEINKVRAKRSSKMYLKTRSQMPYKVFHYQVKIHFSGTESETHTNQAFEISLYGTVAESENIPFTLPEVSTNKTYSFLIYTEVDIGELLMLKLKWKSDSYFSWSDWWSSPGFAIQKIRVKAGETQKKVIFSSREKVSHLQKGKAPAVFVKCHDKSLNKKSG [C445S] the entry was “disrupting interaction strength”.

In the next assay the parent is B1. To be noted: with hdbp1_human GPIHBP1, Q8IV16. This is another data set of the same source.
As to MESKALLVLTLAVWLQSLTASRGGVAAADQRRDFIDIESKFALRTPEDTAEDTCHLIPGVAESVATCHFNHSSKTFMVIHGWTVTGMYESWVPKLVAALYKREPDSNVIVVDWLSRAQEHYPVSAGYTKLVGQDVARFINWMEEEFNYPLDNVHLLGYSLGAHAAGIAGSLTNKKVNRITGLDPAGPNFEYAEAPSRLSPDDADFVDVLHTFTRGSPGRSIGIQKPVGHVDIYPNGGTFQPGCNIGEAIRVIAERGLGDVDQLVKCSHERSIHLFIDSLLNEENPSKAYRCSSKEAFEKGLCLSCRKNRCNNLGYEINKVRAKRSSKMYLKTRSQMPYKVFHYQVKIHFSGTESETHTNQAFEISLYGTVAESENIPFTLPEVSTNKTYSFLIYTEVDIGELLMLKLKWKSDSYFSWSDWWSSPGFAIQKIRVKAGETQKKVIFYSREKVSHLQKGKAPAVFVKCHDKSLNKKSG [C445Y], the “effect of a mutation on the interaction” value is listed as “disrupting interaction strength”.

Variants of B2 are the subject of the next assay. To be noted: with lipl_human LPL, P06858.
Take MKALGAVLLALLLFGRPGRGQTQQEEEEEDEDHGPDDYDEEDEDEVEEEETNRLPGGRSRVLLRCYTCKSLPRDERCNLTQNCSHGQTCTTLIAHGNTESGLLTTHSTSCTDSCQPITKTVEGTQVTMTCCQSSLCNVPPWQSSRVQDPTGKGAGGPRGSSETVGAALLLNLLAGLGAMGARRP [W109S]: the “effect of a mutation on the interaction” value is recorded as “disrupting interaction strength”.
